From paper PMC4503747
Values joined by “and” are separate entries in the source; they are usually repeats but may differ in a detail not shown here. Equal values may be shown once.

Molecular target: GST-Yih1[2–258], overexpressed in yeast from a galactose-inducible promoter (S. cerevisiae) (UniProt P25637)
Test: pull-down; in vivo GST pull-down: GST fusions overexpressed in yeast from a galactose-inducible promoter (yih1Δ strains; gcn1Δ strain H2556 for the fragments; also cells arrested in G1 with α-factor and released), WCE (1-2 mg) on glutathione beads, immunoblot for endogenous proteins

GST-Yih1[2–258], overexpressed in yeast from a galactose-inducible promoter (S. cerevisiae), sequence (P25637 2-258): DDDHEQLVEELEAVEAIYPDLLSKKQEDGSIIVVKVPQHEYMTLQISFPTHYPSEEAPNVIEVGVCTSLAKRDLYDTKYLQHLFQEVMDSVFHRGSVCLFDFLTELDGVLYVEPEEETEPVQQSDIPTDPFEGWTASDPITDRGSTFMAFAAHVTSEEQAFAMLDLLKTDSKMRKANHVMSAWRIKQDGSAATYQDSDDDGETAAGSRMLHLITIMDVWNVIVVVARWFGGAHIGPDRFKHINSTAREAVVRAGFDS

## Cdc28 (endogenous, yeast whole cell extract) (from UniProt P00546 1-298) (natural protein)
  fold increase of precipitated Cdc28 relative to GST-Yih1 in S-G2/M (30, 60 and 90 minutes after release) against cells arrested in G1 with α-factor: 2 fold and 3 fold
